Test results taken from article PMC12951562 (2026).
Each block holds one binder with its values, some of them ahead of it. Non-standard residues stand in square brackets, D forms with d. No end group written: not given here. pY = N[C@@H](Cc1ccc(OP(=O)(O)O)cc1)C(=O)O

What was measured:
Ac-pYEEIE-NH2 = molecular target: T1, Ac-pYEEIE-NH2 (SMILES CC[C@H](C)[C@H](NC(=O)[C@H](CCC(=O)O)NC(=O)[C@H](CCC(=O)O)NC(=O)[C@H](Cc1ccc(OP(=O)(O)O)cc1)NC(C)=O)C(=O)N[C@@H](CCC(=O)O)C(N)=O); assay: competition binding assay (SH2scan, qPCR)
T1 chain: Ac-[pY]EEIE-NH2

caffeic acid-pYEEIE = molecular target: T2, caffeic acid-pYEEIE; assay: competition binding assay (SH2scan, qPCR)
T2 chain: {caffeic acid}-[pY]EEIE

B1: PIK3R3 C-terminal SH2 (protein)
chain: WFVEDINRVQAEDLLYGKPDGAFLIRESSKKGCYACSVVADGEVKHCVIYSTARGYGFAEPYNLYSSLKELVLHYQQTSLVQHNDSLNVRLAYPV
Kd (Ac-pYEEIE-NH2): 14.9 µM

Kd (caffeic acid-pYEEIE): 0.00053 µM
B2: FYN SH2 (protein)
chain: AEEWYFGKLGRKDAERQLLSFGNPRGTFLIRESETTKGAYSLSIRDWDDMKGDHVKHYKIRKLDNGGYYITTRAQFETLQQLVQHYSERAAGLCCRLVVPCHKG
Kd (Ac-pYEEIE-NH2): 3.3 µM

B3: FES SH2 (protein)
chain: EQLWYHGAIPRAEVAELLVHSGDFLVRESQGKQEYVLSVLWDGLPRHFIIQSLDNLYRLEGEGFPSIPLLIDHLLSTQQPLTKKSGVVLHRAVPKD
Kd (Ac-pYEEIE-NH2): 4.2 µM

B4: YES SH2 (protein)
chain: AEEWYFGKMGRKDAERLLLNPGNQRGIFLVRESETTKGAYSLSIRDWDEIRGDNVKHYKIRKLDNGGYYITTRAQFDTLQKLVKHYTEHADGLCHKLTTVCPTV
Kd (Ac-pYEEIE-NH2): 3.8 µM
